# Laboratory results reported in the supplement of paper PMC7125110.
# ± gives the standard error. For part of these data: Fewer inactive variants are shown than the library holds.
# B1: glmS ribozyme (parent)
# chain: AUAAAAGCGCCAGAACUACAGAAAUGUAGUUGACGAGGAGGAGGUUUAUCGAAUUUUCGGCGGAUGCCUCCAAA
# How the values were obtained:
# Conditions in all cases: with glucosamine-6-phosphate
# glucosamine-6-phosphate [1] = variants of: B1; assay: kcat; higher = faster cleavage; RNA array
# In short: (§1)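 A hybridised Cy3 probe tracked barcoded ribozyme variants, transcribed in situ by E. coli RNA polymerase on sequenced MiSeq chips, at 37 °C. The variants received 40 μM to 10 mM glucosamine-6-phosphate in HEPES/KCl/Mg(OAc)2 buffer. kobs came from decay fits and kcat and KM from weighted Michaelis–Menten fits.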
# glucosamine-6-phosphate [2] = variants of: B1; assay: KM; higher = weaker cofactor use; RNA array
# In short: as §1
# glucosamine-6-phosphate [3] = variants of: B1; assay: self-cleavage kobs at 40 uM GlcN6P; higher = faster cleavage; RNA array
# In short: as §1
# glucosamine-6-phosphate [4] = variants of: B1; assay: self-cleavage kobs at 10000 uM GlcN6P; higher = faster cleavage; RNA array
# In short: as §1
# glucosamine-6-phosphate [5] = variants of: B1; assay: self-cleavage kobs at 640 uM GlcN6P; higher = faster cleavage; RNA array
# In short: as §1
# glucosamine-6-phosphate [6] = variants of: B1; assay: self-cleavage kobs at 160 uM GlcN6P; higher = faster cleavage; RNA array
# In short: as §1
# glucosamine-6-phosphate [7] = variants of: B1; assay: self-cleavage kobs at 2500 uM GlcN6P; higher = faster cleavage; RNA array
# In short: as §1
Variant,kcat (glucosamine-6-phosphate [1]) [s⁻¹],self-cleavage kobs at 10000 uM GlcN6P (glucosamine-6-phosphate [4]) [s⁻¹],further results
C11G G51A,< 1e-05,< 1e-05,KM (glucosamine-6-phosphate [2]): 30.6 ± 15 µM; self-cleavage kobs at 40 uM GlcN6P (glucosamine-6-phosphate [3]): < 1e-05 s⁻¹
G7U A48U C50G U54G,3.22e-05 ± 1.3e-05,,
C11U A53U U54C C58A,1.72e-05 ± 2.3e-06,,self-cleavage kobs at 640 uM GlcN6P (glucosamine-6-phosphate [5]): < 1e-05 s⁻¹
C11A A36U G37C,< 1e-05,,self-cleavage kobs at 40 uM GlcN6P (glucosamine-6-phosphate [3]): < 1e-05 s⁻¹
A6U G32U C50G,6.32e-05 ± 1.6e-05,,self-cleavage kobs at 160 uM GlcN6P (glucosamine-6-phosphate [6]): 7.94e-05 ± 1.8e-05 s⁻¹; self-cleavage kobs at 2500 uM GlcN6P (glucosamine-6-phosphate [7]): 6.04e-05 ± 1.5e-05 s⁻¹
G9A G32C C67A,< 1e-05,,KM (glucosamine-6-phosphate [2]): 304 ± 150 µM; self-cleavage kobs at 2500 uM GlcN6P (glucosamine-6-phosphate [7]): < 1e-05 s⁻¹
C11G A12C,0.000156 ± 3.2e-05,0.00011 ± 1.3e-05,self-cleavage kobs at 2500 uM GlcN6P (glucosamine-6-phosphate [7]): 6.61e-05 ± 1.2e-05 s⁻¹
G9A C71U,5.71e-05 ± 4.6e-06,,
C11U A14U C16G,0.000375 ± 7.9e-05,0.000164 ± 3.4e-05,self-cleavage kobs at 2500 uM GlcN6P (glucosamine-6-phosphate [7]): 6.42e-05 ± 2.5e-05 s⁻¹
A6U U55G,0.00137 ± 0.00067,0.000416 ± 6.4e-05,self-cleavage kobs at 640 uM GlcN6P (glucosamine-6-phosphate [5]): 4.48e-05 ± 1e-05 s⁻¹; self-cleavage kobs at 2500 uM GlcN6P (glucosamine-6-phosphate [7]): 0.000118 ± 1.9e-05 s⁻¹
C10A C58G,1.34e-05 ± 2.4e-06,,
C10A C58U,< 1e-05,,self-cleavage kobs at 640 uM GlcN6P (glucosamine-6-phosphate [5]): < 1e-05 s⁻¹
C11U A36C,< 1e-05,< 1e-05,self-cleavage kobs at 40 uM GlcN6P (glucosamine-6-phosphate [3]): < 1e-05 s⁻¹; self-cleavage kobs at 160 uM GlcN6P (glucosamine-6-phosphate [6]): < 1e-05 s⁻¹
C11G U30C U65G U69A,2.81e-05 ± 7.1e-06,,
A6U A36C G38A A52U,1.37e-05 ± 2.9e-06,< 1e-05,self-cleavage kobs at 640 uM GlcN6P (glucosamine-6-phosphate [5]): < 1e-05 s⁻¹
G9U A42G U47C,< 1e-05,,self-cleavage kobs at 160 uM GlcN6P (glucosamine-6-phosphate [6]): < 1e-05 s⁻¹; self-cleavage kobs at 640 uM GlcN6P (glucosamine-6-phosphate [5]): < 1e-05 s⁻¹
C11A G32A,1.09e-05 ± 7.8e-07,,
A6G U31C,6.74e-05 ± 1.3e-05,5.58e-05 ± 7.5e-06,self-cleavage kobs at 2500 uM GlcN6P (glucosamine-6-phosphate [7]): 5.13e-05 ± 7.6e-06 s⁻¹
C10A A14C C71A,2.17e-05 ± 9.3e-06,,
C10A A12G,< 1e-05,< 1e-05,self-cleavage kobs at 40 uM GlcN6P (glucosamine-6-phosphate [3]): < 1e-05 s⁻¹
A6U U31A U47G C50A A64G C68U,2.33e-05 ± 2.2e-06,,
C10A C71G,3.78e-05 ± 1.3e-05,,self-cleavage kobs at 640 uM GlcN6P (glucosamine-6-phosphate [5]): 5.99e-05 ± 2e-05 s⁻¹
C10A C71A,1.51e-05 ± 2.9e-06,,
A6U C68A,< 1e-05,,
C10G G51U C68U C70U,< 1e-05,,
A6U U31C,3.19e-05 ± 7.8e-07,2.97e-05 ± 1.2e-05,KM (glucosamine-6-phosphate [2]): 647 ± 96 µM
C11A U56C,2.55e-05 ± 1e-05,,self-cleavage kobs at 40 uM GlcN6P (glucosamine-6-phosphate [3]): < 1e-05 s⁻¹; self-cleavage kobs at 160 uM GlcN6P (glucosamine-6-phosphate [6]): < 1e-05 s⁻¹; self-cleavage kobs at 2500 uM GlcN6P (glucosamine-6-phosphate [7]): 4.6e-05 ± 2.2e-05 s⁻¹
C11A U56A,0.000143 ± 1.9e-06,0.000118 ± 1.3e-05,KM (glucosamine-6-phosphate [2]): 2090 ± 78 µM; self-cleavage kobs at 640 uM GlcN6P (glucosamine-6-phosphate [5]): 3.27e-05 ± 1e-05 s⁻¹; self-cleavage kobs at 2500 uM GlcN6P (glucosamine-6-phosphate [7]): 7.89e-05 ± 1.5e-05 s⁻¹
